Data on one molecule can be found in patent US20030103975A1 (published 2003).

The target of the assay is human fibronectin (BD Biosciences) (human, UniProt P02751-8 32-2296, limits assumed). Briefly: solid-phase saturation binding ELISA: coated fibronectin at varying concentrations, soluble integrin at 5 ng/µl, detected with LM609. The method, then:
FIGS. 3A-D. Wells of a 96-well plate were coated with varying concentrations of G⁹¹⁹⁻¹²⁰⁷, G⁹¹⁹⁻¹⁰¹⁸ and G¹⁰¹⁶⁻¹²⁰⁷ (A) or fibronectin (B). αvβ3 integrin (5 ng/μl) was then added to, allowed to bind for 1 h at 37° C., and binding evaluated by ELISA using LM609 followed by a secondary antibody conjugated to alkaline phosphatase. […] is a competition binding curve. Soluble αvβ3 (5 ng/μl) was added to wells coated with G⁹¹⁹⁻¹²⁰⁷ in the presence of increasing concentrations of fibronectin at 37° C. […] In all studies, absorbance was measured at 405 nm. Each of the graphs is representative of at least three separate experiments.
ELISA Assays. Wells of 96-well non-tissue culture treated plates were coated with protein at varying concentrations for 18 h at 4° C. Each well was rinsed three times and blocked with 1% BSA in PBS for 1 h at 37° C. Soluble integrin heterodimers were diluted in binding buffer (25 mM Tris buffer, […], 1 mM MgCl2, 0.5 mM MnCl2, 0.05% BSA, pH 7.5) and added to each well for a final concentration of 5 ng/μl. After incubating for 90 min at 37° C. wells were rinsed three times in binding buffer and appropriate mouse monoclonal anti-integrin antibody was added for 1 h at 37° C. […] Absorbance at 405 nm was measured with a Vmax plate reader (Molecular Devices, Menlo Park, Calif.). Nonspecific binding was determined by the addition of 10 mM EDTA to binding buffer. […]
Background: ELISA stands for enzyme-linked immunosorbent assay.

human fibronectin (BD Biosciences), sequence (P02751 other isoform, or with tags, fused parts or gaps limits assumed): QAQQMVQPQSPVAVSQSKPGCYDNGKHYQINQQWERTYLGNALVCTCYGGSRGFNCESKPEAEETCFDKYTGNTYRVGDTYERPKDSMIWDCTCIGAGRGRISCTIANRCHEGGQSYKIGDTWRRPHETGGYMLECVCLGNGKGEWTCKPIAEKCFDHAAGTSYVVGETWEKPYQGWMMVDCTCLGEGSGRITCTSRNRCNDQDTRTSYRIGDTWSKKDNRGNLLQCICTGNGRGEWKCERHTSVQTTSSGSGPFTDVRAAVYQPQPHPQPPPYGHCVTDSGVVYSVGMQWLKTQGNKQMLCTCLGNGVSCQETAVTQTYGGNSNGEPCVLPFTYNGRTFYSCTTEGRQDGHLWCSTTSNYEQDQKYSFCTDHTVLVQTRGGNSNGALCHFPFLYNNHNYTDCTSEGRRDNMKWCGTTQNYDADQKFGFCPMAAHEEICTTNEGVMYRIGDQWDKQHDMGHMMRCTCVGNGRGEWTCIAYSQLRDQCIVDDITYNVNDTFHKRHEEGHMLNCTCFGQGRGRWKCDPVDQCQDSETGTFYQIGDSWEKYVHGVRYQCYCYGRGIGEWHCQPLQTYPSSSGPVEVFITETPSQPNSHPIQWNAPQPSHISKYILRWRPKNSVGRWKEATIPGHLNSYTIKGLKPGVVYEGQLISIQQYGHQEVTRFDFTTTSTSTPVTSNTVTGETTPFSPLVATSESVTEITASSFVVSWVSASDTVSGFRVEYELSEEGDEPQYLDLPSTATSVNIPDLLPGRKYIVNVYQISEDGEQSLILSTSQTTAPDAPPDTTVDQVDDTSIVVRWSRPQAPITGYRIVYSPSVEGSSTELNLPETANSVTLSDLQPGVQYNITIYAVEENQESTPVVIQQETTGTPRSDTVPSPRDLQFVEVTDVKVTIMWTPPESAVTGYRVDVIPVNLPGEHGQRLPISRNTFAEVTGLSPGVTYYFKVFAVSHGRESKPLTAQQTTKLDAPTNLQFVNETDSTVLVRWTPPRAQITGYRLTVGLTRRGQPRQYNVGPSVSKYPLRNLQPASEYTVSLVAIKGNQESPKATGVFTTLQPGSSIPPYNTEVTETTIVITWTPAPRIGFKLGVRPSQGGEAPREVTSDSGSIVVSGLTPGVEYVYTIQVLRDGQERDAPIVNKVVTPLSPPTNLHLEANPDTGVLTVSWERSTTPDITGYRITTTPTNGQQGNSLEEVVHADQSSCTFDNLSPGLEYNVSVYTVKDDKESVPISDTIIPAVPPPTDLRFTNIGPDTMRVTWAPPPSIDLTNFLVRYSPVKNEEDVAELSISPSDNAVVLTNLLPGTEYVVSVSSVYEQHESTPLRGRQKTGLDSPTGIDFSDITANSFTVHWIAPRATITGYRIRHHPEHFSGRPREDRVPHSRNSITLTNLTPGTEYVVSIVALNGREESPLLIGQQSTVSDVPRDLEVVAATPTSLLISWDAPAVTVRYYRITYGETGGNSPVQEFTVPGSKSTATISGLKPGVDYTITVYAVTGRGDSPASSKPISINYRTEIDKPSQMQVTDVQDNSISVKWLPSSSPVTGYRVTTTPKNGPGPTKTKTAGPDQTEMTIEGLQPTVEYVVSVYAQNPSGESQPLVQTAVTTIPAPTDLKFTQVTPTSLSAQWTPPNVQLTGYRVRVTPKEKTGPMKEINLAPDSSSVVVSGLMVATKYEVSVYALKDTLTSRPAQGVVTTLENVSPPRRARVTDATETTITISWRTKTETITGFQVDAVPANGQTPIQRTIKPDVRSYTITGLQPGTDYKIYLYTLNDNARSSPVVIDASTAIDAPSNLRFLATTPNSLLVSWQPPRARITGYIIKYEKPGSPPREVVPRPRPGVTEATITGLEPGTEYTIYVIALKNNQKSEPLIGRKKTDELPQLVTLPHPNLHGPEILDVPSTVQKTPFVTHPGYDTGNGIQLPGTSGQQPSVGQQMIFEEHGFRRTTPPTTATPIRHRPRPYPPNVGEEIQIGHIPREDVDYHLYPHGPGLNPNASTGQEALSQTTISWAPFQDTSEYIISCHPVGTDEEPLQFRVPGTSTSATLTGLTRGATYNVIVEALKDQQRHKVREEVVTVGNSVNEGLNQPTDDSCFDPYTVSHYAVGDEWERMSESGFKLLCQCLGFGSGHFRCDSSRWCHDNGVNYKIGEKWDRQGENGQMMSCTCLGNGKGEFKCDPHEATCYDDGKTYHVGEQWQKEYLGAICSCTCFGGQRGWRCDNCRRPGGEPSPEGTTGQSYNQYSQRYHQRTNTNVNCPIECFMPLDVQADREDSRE

B1: soluble αvβ3 integrin heterodimer (Chemicon International) (receptor)
chain 1: FNLDVDSPAEYSGPEGSYFGFAVDFFVPSASSRMFLLVGAPKANTTQPGIVEGGQVLKCDWSSTRRCQPIEFDATGNRDYAKDDPLEFKSHQWFGASVRSKQDKILACAPLYHWRTEMKQEREPVGTCFLQDGTKTVEYAPCRSQDIDADGQGFCQGGFSIDFTKADRVLLGGPGSFYWQGQLISDQVAEIVSKYDPNVYSIKYNNQLATRTAQAIFDDSYLGYSVAVGDFNGDGIDDFVSGVPRAARTLGMVYIYDGKNMSSLYNFTGEQMAAYFGFSVAATDINGDDYADVFIGAPLFMDRGSDGKLQEVGQVSVSLQRASGDFQTTKLNGFEVFARFGSAIAPLGDLDQDGFNDIAIAAPYGGEDKKGIVYIFNGRSTGLNAVPSQILEGQWAARSMPPSFGYSMKGATDIDKNGYPDLIVGAFGVDRAILYRARPVITVNAGLEVYPSILNQDNKTCSLPGTALKVSCFNVRFCLKADGKGVLPRKLNFQVELLLDKLKQKGAIRRALFLYSRSPSHSKNMTISRGGLMQCEELIAYLRDESEFRDKLTPITIFMEYRLDYRTAADTTGLQPILNQFTPANISRQAHILLDCGEDNVCKPKLEVSVDSDQKKIYIGDDNPLTLIVKAQNQGEGAYEAELIVSIPLQADFIGVVRNNEALARLSCAFKTENQTRQVVCDLGNPMKAGTQLLAGLRFSVHQQSEMDTSVKFDLQIQSSNLFDKVSPVVSHKVDLAVLAAVEIRGVSSPDHVFLPIPNWEHKENPETEEDVGPVVQHIYELRNNGPSSFSKAMLHLQWPYKYNNNTLLYILHYDIDGPMNCTSDMEINPLRIKISSLQTTEKNDTVAGQGERDHLITKRDLALSEGDIHTLGCGVAQCLKIVCQVGRLDRGKSAILYVKSLLWTETFMNKENQNHSYSLKSSASFNVIEFPYKNLPIEDITNSTLVTTNVTWGIQPAPMPV
chain 2: GPNICTTRGVSSCQQCLAVSPMCAWCSDEALPLGSPRCDLKENLLKDNCAPESIEFPVSEARVLEDRPLSDKGSGDSSQVTQVSPQRIALRLRPDDSKNFSIQVRQVEDYPVDIYYLMDLSYSMKDDLWSIQNLGTKLATQMRKLTSNLRIGFGAFVDKPVSPYMYISPPEALENPCYDMKTTCLPMFGYKHVLTLTDQVTRFNEEVKKQSVSRNRDAPEGGFDAIMQATVCDEKIGWRNDASHLLVFTTDAKTHIALDGRLAGIVQPNDGQCHVGSDNHYSASTTMDYPSLGLMTEKLSQKNINLIFAVTENVVNLYQNYSELIPGTTVGVLSMDSSNVLQLIVDAYGKIRSKVELEVRDLPEELSLSFNATCLNNEVIPGLKSCMGLKIGDTVSFSIEAKVRGCPQEKEKSFTIKPVGFKDSLIVQVTFDCDCACQAQAEPNSHRCNNGNGTFECGVCRCGPGWLGSQCECSEEDYRPSQQDECSPREGQPVCSQRGECLCGQCVCHSSDFGKITGKYCECDDFSCVRYKGEMCSGHGQCSCGDCLCDSDWTGYYCNCTTRTDTCMSSNGLLCSGRGKCECGSCVCIQPGSYGDTCEKCPTCPDACTFKKECVECKKFDRGALHDENTCNRYCRDEIESVKELKDTGKDAVNCTYKNEDDCVVRFQYYEDSSGKSILYVVEEPECPKGPD
notes: Bought
Molecule B1 returned a Kd of 0.015 µM.

As usually defined, the Kd is a measure of binding affinity in units of concentration. Read a low Kd as higher affinity.
